Test results as given in article PMC11092803, “Heme allocation in eukaryotic cells relies on mitochondrial heme export through FLVCR1b to cytosolic GAPDH” (Research Square, 2024).

T1: Feline Leukemia Virus subgroup C Receptor 1b (FLVCR1b) (human (endogenous in HEK293T), UniProt Q9Y5Y0-2 1-279)
T1 construct: FLVCR1 isoform b, the mitochondrially targeted version of FLVCR1a that is missing the first six transmembrane helices; endogenous in human HEK293T cells, detected or precipitated with an anti-FLVCR antibody (Novus NB100-1481); The antibody is named as against human FLVCR / FLVCR1; also called Feline leukemia virus subgroup C receptor 1 isoform b; source: endogenous, HEK293T cells; endogenous, …
T1 sequence (looked up): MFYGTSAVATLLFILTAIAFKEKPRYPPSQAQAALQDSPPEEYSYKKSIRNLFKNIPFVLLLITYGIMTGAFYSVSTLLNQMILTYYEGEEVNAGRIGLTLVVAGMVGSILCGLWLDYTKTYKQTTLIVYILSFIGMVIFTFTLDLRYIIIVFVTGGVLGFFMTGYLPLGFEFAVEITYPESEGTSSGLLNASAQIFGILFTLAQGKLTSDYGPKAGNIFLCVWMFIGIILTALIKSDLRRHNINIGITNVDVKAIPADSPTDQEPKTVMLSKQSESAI

T2: FLVCR1b in isolated mouse mitochondria (mouse (endogenous in brain and liver …, UniProt B2RXV4-2 1-279))
T2 construct: Detected with the antibody named as against FLVCR1 (Novus NB100-1481); also called mitochondrial FLVCR1b; source: endogenous, mitochondria isolated from mouse brain and liver
T2 sequence (looked up): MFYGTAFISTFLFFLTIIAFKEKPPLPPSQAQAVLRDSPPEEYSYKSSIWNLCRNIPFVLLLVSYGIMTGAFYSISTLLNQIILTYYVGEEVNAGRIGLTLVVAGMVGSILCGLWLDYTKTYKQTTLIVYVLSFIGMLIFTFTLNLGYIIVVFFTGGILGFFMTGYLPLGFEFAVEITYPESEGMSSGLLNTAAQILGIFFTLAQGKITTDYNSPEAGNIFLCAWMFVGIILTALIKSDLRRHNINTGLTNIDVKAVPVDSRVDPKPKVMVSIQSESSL

B1: H53A point mutant variant of HA-hGAPDH (natural protein)
chain: not shown
notes: human GAPDH with H53A, expressed from the H53A variant of pRK5-TC-hGAPDH-HA; also called H53A HA-GAPDH; HA-H53A; source: HEK293T, transfected (H53A variant of pRK5-TC-hGAPDH-HA), in cells; in solubilised mitochondria
B2: Transport and Golgi Organization 2 (TANGO2) protein (natural protein, human (endogenous in HEK293T), UniProt Q6ICL3 1-276, looked up)
chain: MCIIFFKFDPRPVSKNAYRLILAANRDEFYSRPSKLADFWGNNNEILSGLDMEEGKEGGTWLGISTRGKLAALTNYLQPQLDWQARGRGELVTHFLTTDVDSLSYLKKVSMEGHLYNGFNLIAADLSTAKGDVICYYGNRGEPDPIVLTPGTYGLSNALLETPWRKLCFGKQLFLEAVERSQALPKDVLIASLLDVLNNEEAQLPDPAIEDQGGEYVQPMLSKYAAVCVRCPGYGTRTNTIILVDADGHVTFTERSMMDKDLSHWETRTYEFTLQS
notes: TANGO2, endogenous in human HEK293T cells, detected with an anti-TANGO2 antibody (Invitrogen PA5-51818); also called Transport and Golgi organization 2 homolog; T2; source: endogenous, HEK293T cells
B3: glyceraldehyde phosphate dehydrogenase (GAPDH) (natural protein)
chain: not shown
notes: Glyceraldehyde 3-phosphate dehydrogenase, endogenous in the human HEK293T cell line, detected with an anti-GAPDH antibody; In the experiments on isolated mouse mitochondria the GAPDH came with HEK293T cytosol, but mouse GAPDH that stayed on the mitochondria cannot be ruled out; also called Glyceraldehyde 3-phosphate dehydrogenase; source: endogenous, HEK293T cells; endogenous, solubilised HEK293T …

What was measured:
Conditions in all cases: partners not purified
[1] = molecular target: T1, Feline Leukemia Virus subgroup C …; assay: proximity ligation; Duolink PLA on HEK293T cells transfected with HA-tagged GAPDH wild type or H53A, antibodies to HA and FLVCR1; resting and at times after δ-ALA/Fe; background = one primary antibody alone
[2] = molecular target: T1, Feline Leukemia Virus subgroup C …; assay: proximity ligation; Duolink PLA on fixed, permeabilised heme-depleted HEK293T cells, pairs of primary antibodies to the endogenous proteins; 0, 15, 30, 45, 60 and 120 min after δ-ALA (1 mM) and ferric citrate (100 μM); also in cells with control siRNA or knock-down of TANGO2 or GAPDH; background = one primary antibody alone, set to 1.0
[3] = molecular target: B3; assay: as above
[4] = molecular target: T2, FLVCR1b in isolated mouse mitochondria; assay: proximity ligation; Duolink PLA on mitochondria from mouse brain and liver, before or after incubation with δ-ALA and mitochondria-free HEK293T cytosol (control or TANGO2 knock-down cells) at 37 °C, reisolated and placed on poly-D-lysine coverslips

| Binder | PLA signal over background, resting cells [1] [fold over background] | PLA signal over background, resting cells [2] [fold over background] | PLA signal over background [3] [fold over background] | fold increase of PLA signal after 30 min with δ-ALA and cytosol [4] [fold] | fold increase of PLA signal 30 min after δ-ALA/Fe [2] [fold] |
| --- | --- | --- | --- | --- | --- |
| B1 | ~2 |  |  |  |  |
| B2 |  | 5 | 2.5 |  |  |
| B3 |  | 2.5 |  | 4 | 18 |
